Experimental findings from patent US20230040568A1 (ALBERT EINSTEIN COLLEGE OF MEDICINE, published 2023) are described below.

B1: KIR3DL3 D0D1D2-Ig fusion polypeptide (Fc fusion)
chain: QDKPFLSAWPGTVVSEGQHVTLQCRSRLGFNEFSLSKEDGMPVPELYNRIFRNSFLMGPVTPAHAGTYRCCSSHPHSPTGWSAPSNPVVIMVTGVHRKPSLLAHPGPLVKSGETVILQCWSDVRFERFLLHREGITEDPLRLVGQLHDAGSQVNYSMGPMTPALAGTYRCFGSVTHLPYELSAPSDPLDIVVVGLYGKPSLSAQPGPTVQAGENVTLSCSSRSLFDIYHLSREAEAGELRLTAVLRVNGTFQANFPLGPVTHGGNYRCFGSFRALPHAWSDPSDPLPVSVTGNSRNLHVL
notes: Expressed in an S2 system; also called whole extracellular portion of KIR3DL3; whole extracellular part of KIR3DL3; not shown: human IgG1 Fc tag
B2: KIR3DL3 D0-Ig fusion polypeptide (Fc fusion)
chain: QDKPFLSAWPGTVVSEGQHVTLQCRSRLGFNEFSLSKEDGMPVPELYNRIFRNSFLMGPVTPAHAGTYRCCSSHPHSPTGWSAPSNPVVIMVTGVHRKPSLLA
notes: Expressed in an S2 system; also called KIR3DL3 DO-Ig; KIR3DL3 D0(Q26-A128)-Ig; not shown: human IgG1 Fc tag
B3: monoclonal 3B7 (antibody, V domains shown)
VH: QVQLQQSGPEVVRPGVSVKISCKGSGYTFSDYTMHWVKQSHAKSLEWIGVISTDNGNTNYNQKFKGKATMTVDKSSSTAYMELARLTSEDSAIYYCAREARDYGSIYALDYWGQGTSVTVS
VL: DIQMTQSPASLSASVGETVTITCRASGNIHNYLAWYQQKQGKSPQLLVYNAKTLADGVPSRFSGSGSGTQYSLKINNLQPEDFGNYYCQHFWSTPWTFGGGTKLEIKR
notes: Mouse hybridoma mAb; Entries include leader; Counted on the printed text
B4: monoclonal 14F8 (antibody, V domains shown)
VH: QVQLQQSGPEVVRPGVSVKISCKGSGYTFTDYTMHWVKQSHAKSLEWIGVISTYNGNTNYNQNFEGKATMTVDKSSSTAYMELARLTSEDSAIYYCARERGGDGYYSAVDYWGQGTSVTVS
VL: SIVMTQTPKFLLVSAGDRVTITCKASQSVINDVAWYQQKPGQSPKLLIYYASNRYTGVPDRFTGSGYGTDFTFTISTVQAEDLAVYFCQQDYSSPYTFGGGTKLEIKR
B5: monoclonal 51C3 (antibody, V domains shown)
VH: EVQLQQSGPELVKPGASVKISCKTSGYTFTEYIMHWVKQSHGKSLEWIGGINPNNGGTNYNQKFKGKATLTVDTSSSIAYMELRSLTSEDSAVYYCARDDGYYVKFAYWGQGTLVTVSA
VL: SIVMTQTPKFLLVSAGDRVTITCKASQSVINDVAWYQQKPGQSPKLLIYYASNRYTGVPDRFTGSGYGTDFTFTISTVQAEDLAVYFCQQDYSSPFTFGSGTKLEIKR
notes: Mouse hybridoma mAb; Entries include leader
B6: monoclonal 11G8 (antibody, V domains shown)
VH: QVQLQQSGPDLVRPGVSVKISCKGSGYTFTDYAMHWVKQSHAKSLEWIGVISTDSGTTNYNQKFKGKATMTVDKSSSTAYMDLARLTSEDSAIYYCARDSSYYVRFSYWGQGTLVTVSA
VL: SIVMTQTPKFLLVSVGDRVTITCKASQSVSNDVAWYQQKPGQSPKLLIYYASNRYTGVPDRFTGSGYGTDFTFTISTVQAEDLAVYFCQQDYSSPWTFGGGTKLEIKR
notes: as for B5
B7: monoclonal 29H7 (antibody, V domains shown)
VH: QVQLQQSGPEVVRPGVSVKISCKGSGYTFTDYVMHWVKQSHGKSLEWIGVISTYNGNTNYNQKFKGKATMTVDKSSSTAYMELARLTSEDSAIYYCARERGGDGYYSAMDYWGQGTSVTVSS
VL: SIVMTQTPKFLLVSAGDRVTIACKASQSVINNVAWYQQKPGQSPELLIYYASNRYTGVPDRFTGSGYGTDFTFTITTVQAEDLAVYFCQQDYSSPYTFGGGTKLEIKR
notes: Mouse hybridoma mAb; Entries include (partial) leader
B8: monoclonal 37A3 (antibody, V domains shown)
VH: QVQLVETGGGLVRPGNSLKLSCVTSGFTFSNYRMHWLRQPPGKRLEWIAVITVKSDNYGANFAESVKGRFTISRDDSKSSVYLQMNRLREEDTATYYCSRGSGPGFAYWGQGTLVTVS
VL: DIVMTQSPSSLSVSAGEKVTMSCKSSQSLLNSGNQKNYLAWYQQKPGQPPKLLIYGASTRESGVPDRFTGSGSGTDFTLTISSVQAEDLAVYYCQNDHSYPFTFGSGTKLEIK
notes: Mouse hybridoma mAb
B9: monoclonal 26E10 (antibody, V domains shown)
VH: QAYLQQSGAELVRSGASVKMSCKASGYTFTSYNIHWVKQTPGQGLEWIGYIYPGDGVTNYNQKFKGKATLTADTSSSTAYMQISSLTSEDSAVYFCARSGNYGNYEGFAYWGQGTLVTVSA
VL: DIKMTQSPSSMYASLGERVTITCKASQDTNSYLSWFQQKPGKSPKTLIYRANRLVDGVPSRFSGSGSGQDYSLTISSLEYEDMGIYYCLQYDEFPYTFGGGTKLEIK
B10: monoclonal 31C4 (antibody, V domains shown)
VH: QAYLQQSGAELVRSGASVKMSCKASGYTFTSYNMHWVKQTPGQGLEWIGYIFPGDGGTNYNQKFKGKATLTADTSSSTAYMQISSLTSEDSAVYFCARSGNYGNYEGFAYWGQGTLVTVSA
VL: DIKMTQSPSSMYASLGERVTITCKASQDINSYLSWFQQKPGKSPKTLIYRANRLVDGVPSRFSGSGSGQDYSLTISSLEYEDMGIYYCLQYDEFPYTFGGGTKLEIKR
notes: Mouse hybridoma mAb; Entries include leader (and vector-derived residues in the VL)
B11: monoclonal 12A10 (antibody, V domains shown)
VH: QAYLQQSGAELVRSGASVKMSCKASGYTFTSYNMHWVKQTPGQGLEWIGYIFPGDGGTNYNQKFKGKATLTADTSSSTAYMQISSLTSEDSAVYFCARSGYYGNYEGFAYWGQGTLVTVSA
VL: DIKMTQSPSSMYASLGERVTITCKASQDINSYLSWFQQKPGKSPKTLIYRANRLVDGVPSRFSGSGSGQDYSLTISSLEYEDMGIYYCLHYAEFPYTFGGGTKLEIKR
B12: monoclonal 30D10 (antibody, V domains shown)
VH: EVQLQQSGAELVRPGALVKLSCKASGFNFKDYFMHWVKQRPEQGLEWIGWIDPENGNTIYEPKFQGKASITADTSSNTAYLQLSSLTSEDTAVYYCARGGVGHWYFDVWGAGTTVTVS
VL: DIVLTQSPASLAVSLGQRATISCKASQSVDYDGDSYMNWYQQKPGQPPKLLIYVASNLKSGIPARFSGSGCGTDFTLNIHPVEEEDGATYYCQQTNEDPWTFGGGTKLEIK
notes: Mouse hybridoma mAb; VH entry includes leader and vector-derived residues
B13: monoclonal 8G7 (antibody, V domains shown)
VH: EVMLVESGGGLVKPGGSLKLSCAASGFTFSTYAMSWVRQTPEKRLEWVATILSGGNYTYYPDSVKGRFTISRDNAKNTLNLQMSSLRSEDTAMYYCVIPYGSSPFDYWGQGTTLTVS
VL: SIVMTQTPKFLLVSAGDRVTITCKASQSVSNDVAWYQQKPGQSPKLLIYYASNRYTGVPDRFTGSGYGTDFTFTISTVQAEDLAVYFCQQDYSSPWTFGGGTKLEIK
notes: Mouse hybridoma mAb; also called anti-KIR3DL3 mAb clone 8G7
B14: monoclonal 34B10 (antibody, V domains shown)
VH: EVKLVESGGVLVQPGGSLRLSCATSGFTFTDYYMGWVRQPPGKALEWLGFIRNKANGYTTESSASVKGRFTISRDNSQSILYLQMNTLRAEDSATYYCARDYYSGSSLDYWGQGTTLTVSS
VL: DIQMTQTTSSLSASLGDRVTISCRASQDISNYLNWYQQKPDGTVKLLIYYTSRLHSGVPSRFSGSGSGTDYSLSISNLEQEDIATYFCQQGYTLPYTFGGGTKLEIKR
notes: as for B5
B15: KIR3DL3 expressed on cells (3T3 cell line expressing KIR3DL3; KIR3DL3+ NK92 cells; primary KIR3DL3+ NK cells and CD8 T cells) (receptor)
chain: QDKPFLSAWPGTVVSEGQHVTLQCRSRLGFNEFSLSKEDGMPVPELYNRIFRNSFLMGPVTPAHAGTYRCCSSHPHSPTGWSAPSNPVVIMVTGVHRKPSLLAHPGPLVKSGETVILQCWSDVRFERFLLHREGITEDPLRLVGQLHDAGSQVNYSMGPMTPALAGTYRCFGSVTHLPYELSAPSDPLDIVVVGLYGKPSLSAQPGPTVQAGENVTLSCSSRSLFDIYHLSREAEAGELRLTAVLRVNGTFQANFPLGPVTHGGNYRCFGSFRALPHAWSDPSDPLPVSVTGNSRNLHVLIGTSVVIIPFAILLFFLLHRWCANKKNAVVMDQEPAGNRTVNREDSDEQDPQEVTYAQLNHCVFTQRKITRPSQRPKTPPTDTSV
notes: also called KIR3DL3-expressing 3T3 cells; KIR3DL3 WT
B16: TMIGD2 expressed on 3T3 cells (receptor, UniProt Q96BF3 23-282, looked up)
chain: LSVQQGPNLLQVRQGSQATLVCQVDQATAWERLRVKWTKDGAILCQPYITNGSLSLGVCGPQGRLSWQAPSHLTLQLDPVSLNHSGAYVCWAAVEIPELEEAEGNITRLFVDPDDPTQNRNRIASFPGFLFVLLGVGSMGVAAIVWGAWFWGRRSCQQRDSGNSPGNAFYSNVLYRPRGAPKKSEDCSGEGKDQRGQSIYSTSFPQPAPRQPHLASRPCPSPRPCPSPRPGHPVSMVRVSPRPSPTQQPRPKGFPKVGEE
notes: whole, on cells

One assay addresses T1, HHLA2 expressed on cells (3T3 cell line expressing HHLA2; HHLA2/K562) (UniProt Q9UM44 23-414, limits assumed).
T1 construct: whole, on cells
T1 sequence (looked up): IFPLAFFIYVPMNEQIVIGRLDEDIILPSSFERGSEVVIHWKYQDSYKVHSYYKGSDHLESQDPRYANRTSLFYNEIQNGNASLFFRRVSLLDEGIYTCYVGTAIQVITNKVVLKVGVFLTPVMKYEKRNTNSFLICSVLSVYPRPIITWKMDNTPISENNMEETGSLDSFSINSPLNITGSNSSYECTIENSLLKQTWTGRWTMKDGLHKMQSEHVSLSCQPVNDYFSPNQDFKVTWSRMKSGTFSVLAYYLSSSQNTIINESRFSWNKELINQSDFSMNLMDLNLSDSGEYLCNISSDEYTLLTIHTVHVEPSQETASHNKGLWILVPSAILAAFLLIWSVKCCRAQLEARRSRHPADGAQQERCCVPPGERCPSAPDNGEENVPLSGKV
Briefly: FACS, staining of 3T3 cells expressing HHLA2 (FIG. 2C). (In general: A flow cytometer gives signals particle by particle.)
On to B1, for which the binding result is “binds”.
On the same count and under the same terms, the value for B2 was “binds”.

Another assay concerns the target T2, KIR3DL3 protein (antigen of the affinity determination of Table 3) (human, UniProt Q8N743 26-325, limits assumed).
T2 construct: also called human KIR3DL3
The assay can be described thus: method and antigen format not stated.
As to B3, the Kd (as a rule, a measure of binding affinity in units of concentration) came out at 0.51 nM.
Still for that read-out and setting: with B4 the figure was 0.69 nM; with B5, 0.19 nM.
With B6, the Kd came out at 0.29 nM.
B7: the Kd came out at 1.13 nM.
B8 returned an equilibrium dissociation constant (Kd) of 8.5 nM.
For B9, the equilibrium dissociation constant (Kd) was 0.17 nM.
Same read-out and setting: with B10 the figure was 0.72 nM; with B11, 0.69 nM; with B12, 0.16 nM.
With B13, the Kd was 0.11 nM.
Still for that read-out and setting: with B14 the figure was 1.51 nM.

The target in a further assay is T1, HHLA2 expressed on cells (3T3 cell line …). Briefly: intercellular conjugate assay (FIG. 2B).
Regarding B15, the binding result was “binds”.

The target in another assay is T3, HHLA2 EC-Ig-Fc fusion polypeptide (UniProt Q9UM44 23-344).
T3 construct: extracellular domain; also called whole extracellular part of HHLA2; not shown: Ig Fc part
T3 sequence (looked up): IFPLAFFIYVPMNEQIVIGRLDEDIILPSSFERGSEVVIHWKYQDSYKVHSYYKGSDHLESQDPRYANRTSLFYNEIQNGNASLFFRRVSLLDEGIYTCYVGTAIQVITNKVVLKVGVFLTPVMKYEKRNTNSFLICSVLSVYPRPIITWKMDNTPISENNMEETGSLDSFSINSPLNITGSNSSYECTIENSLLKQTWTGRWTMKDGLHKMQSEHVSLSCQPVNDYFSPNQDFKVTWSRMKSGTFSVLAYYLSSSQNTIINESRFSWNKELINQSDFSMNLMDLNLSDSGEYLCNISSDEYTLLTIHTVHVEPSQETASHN
The assay can be described thus: FACS, staining of 3T3 cells expressing TMIGD2 (FIG. 8). From the text: To examine the binding of TMIGD2 to HHLA2, 3T3 cell lines expressing TMIGD2 were stained with a HHLA2 EC-Ig-Fc fusion polypeptide, a HHLA-2-IgV1-hIgG fusion polypeptide, or Ig (control) (FIG. 8).
For the molecule B16, the binding result is reported as “binds”.
